The test system of the data set is Escherichia coli TOP10. Description: shrunken log2 fold change of peptide-encoding DNA abundance (4.5 h post-induction vs induction); higher = less antimicrobial activity (less host growth inhibition). The conditions noted are these: time post-induction: 4.5 h; library: site-saturation at positions 5, 18, 19, 20.
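Further: peptides expressed intracellularly from a pBAD plasmid library in pooled LB shake-flask culture, induced with 0.3% L-arabinose, DNA abundance read by NGS, three biological replicates, DESeq2 with apeglm shrinkage.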

For the sequence RRIRPRPPRLPRPRPRPIEQPRP, the “shrunken log2 fold change” value came out at 0.000804.

For RRIRFRPPRLPRPRPRPLDVPRP, the “shrunken log2 fold change” value is -0.153.

Take RRIRGRPPRLPRPRPRPEWQPRP: the “shrunken log2 fold change” value came out at 0.783.

As for RRIRKRPPRLPRPRPRPIQGPRP, the “shrunken log2 fold change” value was -0.0243.

For the sequence RRIRFRPPRLPRPRPRPKIMPRP, the “shrunken log2 fold change” value is -0.624.

Consider RRIRARPPRLPRPRPRPRRDPRP, for which the “shrunken log2 fold change” value was determined as 0.656.

RRIRSRPPRLPRPRPRPGMPPRP: the “shrunken log2 fold change” value is -0.122.

Regarding RRIRERPPRLPRPRPRPAAFPRP, the “shrunken log2 fold change” value was -0.0909.

Regarding RRIRVRPPRLPRPRPRPDSDPRP, the “shrunken log2 fold change” value was -0.0912.

RRIRCRPPRLPRPRPRPGYKPRP: the “shrunken log2 fold change” value was -0.0902.

Take RRIRNRPPRLPRPRPRPFAIPRP: the “shrunken log2 fold change” value is -0.0909.

Regarding RRIRDRPPRLPRPRPRPNETPRP, the “shrunken log2 fold change” value was -0.023.

Consider RRIRGRPPRLPRPRPRPLDVPRP, for which the “shrunken log2 fold change” value was 0.326.

With RRIRFRPPRLPRPRPRPISEPRP, the “shrunken log2 fold change” value was -0.0674.

As to RRIRMRPPRLPRPRPRPKNIPRP, the “shrunken log2 fold change” value is -0.232.

Consider RRIRSRPPRLPRPRPRPLRIPRP, for which the “shrunken log2 fold change” value is -0.0455.

For the sequence RRIRFRPPRLPRPRPRPLKGPRP, the “shrunken log2 fold change” value was -0.128.

RRIRERPPRLPRPRPRPKPSPRP: the “shrunken log2 fold change” value came to 0.229.

RRIRKRPPRLPRPRPRPLNQPRP: the “shrunken log2 fold change” value was -0.128.

Turning to RRIRPRPPRLPRPRPRPRGVPRP, the “shrunken log2 fold change” value was 0.347.

Regarding RRIRSRPPRLPRPRPRPKWHPRP, the “shrunken log2 fold change” value was 0.0951.

In the case of RRIRPRPPRLPRPRPRPVFMPRP, the “shrunken log2 fold change” value is -0.185.

As for RRIRFRPPRLPRPRPRPWKDPRP, the “shrunken log2 fold change” value was -0.192.

As to RRIRVRPPRLPRPRPRPIHYPRP, the “shrunken log2 fold change” value is -0.137.

With RRIRHRPPRLPRPRPRPVCGPRP, the “shrunken log2 fold change” value came out at 0.137.

As for RRIRERPPRLPRPRPRPCPHPRP, the “shrunken log2 fold change” value was -0.105.

On to RRIRQRPPRLPRPRPRPVTGPRP, for which the “shrunken log2 fold change” value was 0.0279.

RRIRVRPPRLPRPRPRPVLGPRP: the “shrunken log2 fold change” value is 0.299.

RRIRKRPPRLPRPRPRPTGIPRP: the “shrunken log2 fold change” value stood at 0.0402.

As to RRIRHRPPRLPRPRPRPMSHPRP, the “shrunken log2 fold change” value is -0.0479.

As for RRIRCRPPRLPRPRPRPCDAPRP, the “shrunken log2 fold change” value was -0.466.

RRIRVRPPRLPRPRPRPQQNPRP: the “shrunken log2 fold change” value was -0.112.

Consider RRIRWRPPRLPRPRPRPFVQPRP, for which the “shrunken log2 fold change” value was -0.184.

RRIRLRPPRLPRPRPRPCEGPRP: the “shrunken log2 fold change” value was -0.199.

In the case of RRIRPRPPRLPRPRPRPTRDPRP, the “shrunken log2 fold change” value worked out at 0.481.

With RRIRARPPRLPRPRPRPRTKPRP, the “shrunken log2 fold change” value is 0.565.

Take RRIRFRPPRLPRPRPRPMCAPRP: the “shrunken log2 fold change” value was 0.253.

RRIRERPPRLPRPRPRPPYGPRP: the “shrunken log2 fold change” value is -0.244.

For the sequence RRIRTRPPRLPRPRPRPGITPRP, the “shrunken log2 fold change” value is -0.104.

For the sequence RRIRYRPPRLPRPRPRPTSIPRP, the “shrunken log2 fold change” value was -0.656.

Take RRIRFRPPRLPRPRPRPFDLPRP: the “shrunken log2 fold change” value was -0.352.

On to RRIRERPPRLPRPRPRPVMAPRP, for which the “shrunken log2 fold change” value is -0.0537.

Regarding RRIRARPPRLPRPRPRPNTLPRP, the “shrunken log2 fold change” value is -0.202.

For RRIRCRPPRLPRPRPRPCPHPRP, the “shrunken log2 fold change” value is -0.235.

As to RRIRKRPPRLPRPRPRPLQMPRP, the “shrunken log2 fold change” value was -0.0261.

Consider RRIRFRPPRLPRPRPRPTPKPRP, for which the “shrunken log2 fold change” value stood at 0.681.

In the case of RRIRERPPRLPRPRPRPPWGPRP, the “shrunken log2 fold change” value is 0.285.

Take RRIRMRPPRLPRPRPRPGALPRP: the “shrunken log2 fold change” value stood at 0.954.

Regarding RRIRWRPPRLPRPRPRPGTPPRP, the “shrunken log2 fold change” value came to 0.356.

For RRIRMRPPRLPRPRPRPMCKPRP, the “shrunken log2 fold change” value turned out to be 0.00898.

RRIRTRPPRLPRPRPRPQYHPRP: the “shrunken log2 fold change” value was -0.329.

As to RRIRKRPPRLPRPRPRPPWHPRP, the “shrunken log2 fold change” value worked out at 0.349.

Regarding RRIRPRPPRLPRPRPRPPQYPRP, the “shrunken log2 fold change” value amounted to 0.189.

For RRIRVRPPRLPRPRPRPCDSPRP, the “shrunken log2 fold change” value was -0.0445.

With RRIRRRPPRLPRPRPRPPPCPRP, the “shrunken log2 fold change” value came out at 0.864.

With RRIRPRPPRLPRPRPRPDAKPRP, the “shrunken log2 fold change” value came out at 0.201.

In the case of RRIRSRPPRLPRPRPRPCRCPRP, the “shrunken log2 fold change” value is -0.358.

On to RRIRTRPPRLPRPRPRPEFPPRP, for which the “shrunken log2 fold change” value worked out at 0.0504.

With RRIRERPPRLPRPRPRPWCHPRP, the “shrunken log2 fold change” value was -0.229.

Turning to RRIRQRPPRLPRPRPRPKERPRP, the “shrunken log2 fold change” value was -0.00138.

As for RRIRYRPPRLPRPRPRPSISPRP, the “shrunken log2 fold change” value is -0.601.

Take RRIRPRPPRLPRPRPRPWRRPRP: the “shrunken log2 fold change” value is 0.142.

In the case of RRIRMRPPRLPRPRPRPQPQPRP, the “shrunken log2 fold change” value stood at 0.717.

Take RRIRRRPPRLPRPRPRPRGSPRP: the “shrunken log2 fold change” value came out at 0.729.

Consider RRIRPRPPRLPRPRPRPWMEPRP, for which the “shrunken log2 fold change” value is -0.0134.

On to RRIRRRPPRLPRPRPRPDAAPRP, for which the “shrunken log2 fold change” value amounted to 1.44.

Take RRIRLRPPRLPRPRPRPESLPRP: the “shrunken log2 fold change” value was 0.157.

Consider RRIRCRPPRLPRPRPRPKHNPRP, for which the “shrunken log2 fold change” value was -0.325.

In the case of RRIRSRPPRLPRPRPRPELWPRP, the “shrunken log2 fold change” value stood at 0.743.

For the sequence RRIRPRPPRLPRPRPRPPDYPRP, the “shrunken log2 fold change” value was -0.107.

Turning to RRIRRRPPRLPRPRPRPNDCPRP, the “shrunken log2 fold change” value was 0.264.

For the sequence RRIRGRPPRLPRPRPRPCCKPRP, the “shrunken log2 fold change” value is -0.108.

Regarding RRIRGRPPRLPRPRPRPRMSPRP, the “shrunken log2 fold change” value is 0.28.

As to RRIRPRPPRLPRPRPRPWIYPRP, the “shrunken log2 fold change” value was -0.584.

In the case of RRIRFRPPRLPRPRPRPHWEPRP, the “shrunken log2 fold change” value is -0.0104.

Consider RRIRKRPPRLPRPRPRPFWRPRP, for which the “shrunken log2 fold change” value came to 0.00905.

Take RRIRHRPPRLPRPRPRPQDQPRP: the “shrunken log2 fold change” value stood at 0.0969.

As for RRIRPRPPRLPRPRPRPHMYPRP, the “shrunken log2 fold change” value is -0.316.

For RRIRYRPPRLPRPRPRPSCDPRP, the “shrunken log2 fold change” value was -0.74.

Turning to RRIRFRPPRLPRPRPRPDNVPRP, the “shrunken log2 fold change” value was -0.336.

Consider RRIRMRPPRLPRPRPRPDDRPRP, for which the “shrunken log2 fold change” value is -0.012.

As to RRIRGRPPRLPRPRPRPKSPPRP, the “shrunken log2 fold change” value was 0.677.

In the case of RRIRRRPPRLPRPRPRPEFTPRP, the “shrunken log2 fold change” value amounted to 0.0132.

On to RRIRSRPPRLPRPRPRPNWWPRP, for which the “shrunken log2 fold change” value was determined as 0.022.

Turning to RRIRTRPPRLPRPRPRPCRGPRP, the “shrunken log2 fold change” value was -0.398.

Regarding RRIRGRPPRLPRPRPRPFTLPRP, the “shrunken log2 fold change” value is -0.109.

Regarding RRIRGRPPRLPRPRPRPGKPPRP, the “shrunken log2 fold change” value is 0.516.

Regarding RRIRCRPPRLPRPRPRPLLSPRP, the “shrunken log2 fold change” value was -0.306.

On to RRIRLRPPRLPRPRPRPHFAPRP, for which the “shrunken log2 fold change” value is -0.0165.

On to RRIRKRPPRLPRPRPRPIDQPRP, for which the “shrunken log2 fold change” value was found to be 0.122.

On to RRIRKRPPRLPRPRPRPPLPPRP, for which the “shrunken log2 fold change” value amounted to 0.74.

The values above are taken from the supplement of paper PMC9112550, “Optimization of the antimicrobial peptide Bac7 by deep mutational scanning” (BMC Biology, 2022).
